Measured values: the supplement of paper PMC6755084

B1: minF1; a variant is named by its letters at N, in order (parent)
chain: GAGACCGCAACTGAAAAGTTGTTANNNNAANGNNNGGTTGAATTTCTGCACGTAGAAGCAAAAGGC
B2: minF1; a variant is named by its letters at N, in order (parent)
chain: GAGACCGCAACTGAAAAGTTGTTATCAGAAATGNNNGGNTNNNTTTCTGCACGTAGAAGCAAAAGGC
B3: minF1; the commonest letter at each place (parent)
chain: GAGACCGCAACTGAAAAGTTGTTATCAGAAATGGATGGGTTGAATTTCTGCACGTAGAAGCAAAAGGC
B4: minF1; a variant is named by its letters at N, in order (parent)
chain: GAGACCGCAACTGAAAAGTTGTTNNNNAANNNNNGGNTNAATTTCTGCACGTAGAAGCAAAAGGC

Variants of: B1
Assay: fraction ligated after 30 min (ligated reads / total reads); higher = more ligase activity
Conditions: with F1*subA RNA substrate (template-directed ligation), 42 °C
Procedure, shortened: (§1)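 Templates from an oligo pool encoding minimized ligase ribozyme variants were amplified by PCR, transcribed with T7, and purified on gels. Gel electrophoresis separated ligated from unligated RNAs, which were then reverse transcribed using barcoded primers and sequenced on a MiSeq, keeping core bases with quality ≥30. For each variant, fraction ligated equals ligated reads divided by total reads.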

Row | Variant | fraction ligated
1 | CAGATGAG A24T | 0.00352
2 | TCAGTGAG | 0.00523
3 | TCAGTGAT | 0.0235
4 | TCAAGATG A30T | 0.111
5 | CAGAGATG A24T | 0.00326
6 | TCAGAGAT G32T | 0.00472
7 | TCAGTGAT T38G G40T | 0.0275
8 | CAGAGATG T23A A24T A30T | 0.0668
9 | CAGATATG T23A A24T | 0.00616
10 | TCGATGAT T38G G40T A41G | 0.576
11 | CAAAGATG A30T | 0.00974
12 | TAGATGTG | 0.00059
13 | CAGAGATG A30T | 0.0134
14 | CAGATGAT A24T | 0.00819
15 | TAGATATG | 0.00408
16 | TCAGAGGA G32T G36T T38G T39G G40T A41T A42C | 0.00198
17 | TCAGAGGA G32T G36T T38G T39G G40T A41T A42G | 0.00154
18 | TCAGAGGA G32T G36T T38G T39G G40T A41T A42T | 0.00119
19 | TCAGTATG | 0.011
20 | CAGATGAT T38G G40T | 0.00757
21 | CAGATGTG T23A A24T | 0.00275
22 | CAGAGATG T23A A24T | 0.00547
23 | CAGATATG A24T | 0.00546
24 | CAGAGATG | 0.00233

Row | Variant | fraction ligated
25 | CAGATGAT T23A A24T | 0.0249
26 | TCAGGATG | 0.00705
27 | CAGATGAG T23A A24T | 0.00151
28 | TCAGTGAT T38G G40T A41G | 0.392
29 | TCAGAGGA G32T | 0.0037
30 | TCAGAGGG G32T | 0.00695
31 | TGAAGATG A30T | 0.054
32 | TCAGAATG G32T | 0.00623
33 | TCGATGTG | 0.0076
34 | TCAGAGAT | 0.00503
35 | TCAGAGAG | 0.00214
36 | TCAATGTG | 0.00417
37 | CAGATGAT | 0.0096
38 | CAGATGAG | 0.00664
39 | TCAGAGGA G32T G36T T38G G40T | 0.0174
40 | TCAGAGAT T38G G40T A41G | 0.0517
41 | TCAGAGGA G32T T38G G40T | 0.00434
42 | CAGAGATG A24T A30T | 0.0149
43 | TCAGAGAT G32T T38G G40T A41G | 0.0724
44 | TCAGAGAT G32T T38G G40T | 0.00839
45 | TAGATGAT T38G G40T A41G | 0.025
46 | TCAGAGGA G32T G36T T38G G40T A41G | 0.0306
47 | TCAGAGTG | 0.0048
48 | TCAGAGGA G32T G36T T38G T39G G40T A41T | 0.00781

Row | Variant | fraction ligated
49 | CGAAGATG T23A A24T A30T | 0.0868
50 | TCAATATG | 0.00928
51 | CGAAGATG A24T A30T | 0.0664
52 | AGAAGATG T23A A24C A30T | 0.00911
53 | TCAGAGGT G32T T38G G40T | 0.00529
54 | TCAGAGGA G32T T38G G40T A41G | 0.00714
55 | CAGATGAT T23A A24T T38G G40T A41G | 0.0927
56 | TCGATATG | 0.0107
57 | TCAAGATG | 0.00472
58 | CAGATGAT A24T T38G G40T | 0.00536
59 | CAGATATG | 0.00456
60 | AGAAGATG A24T A30T | 0.00936
61 | TAGATGAT | 0.00267
62 | TAGATGAG | 0.00428
63 | AGAAGATG T23A A24T A30T | 0.00339
64 | TCAGGATG A30T | 0.163
65 | CAGATGAT T23A A24T T38G G40T | 0.0102
66 | CAGATGTG A24T | 0.00498
67 | AGAAGATG A24C A30T | 0.0111
68 | TCAGAGGT G32T T38G G40T A41G | 0.0316
69 | TAGATGAT T38G G40T | 0.00516
70 | TCAGAGAT T38G G40T | 0.004
71 | TAGAGATG A30T | 0.0449
72 | AGAAGATG A30T | 0.0065

Row | Variant | fraction ligated
73 | TCGAGATG A30T | 0.205
74 | TCAGAGTG G32T | 0.00848
75 | TCAATGAT T38G G40T A41G | 0.302
76 | TAAAGATG A30T | 0.021
77 | CAGATGTG | 0.00446
78 | TCAATGAG | 0.00836
79 | TCAATGAT | 0.0159
80 | TCAGAGGT G32T | 0.00299
81 | TCAATGAT T38G G40T | 0.0188
82 | TAGAGATG | 0.00517
83 | CAGATGAT T38G G40T A41G | 0.0186
84 | TCGATGAT T38G G40T | 0.0543
85 | TCGAGATG | 0.00545
86 | CAAAGATG A24T A30T | 0.0148
87 | TCAGAATG | 0.00903
88 | CAAAGATG T23A A24T A30T | 0.0275
89 | TCAGTGTG | 0.00427
90 | CAGATGAT A24T T38G G40T A41G | 0.0273
91 | CGAAGATG A30T | 0.0292
92 | TCGATGAG | 0.00384
93 | TCGATGAT | 0.0366
94 | TCAGAGAG G32T | 0.011

Variants of: B2
Assay: as above
Conditions: with F1*subA RNA substrate (template-directed ligation), 42 °C
Procedure, shortened: as §1

Row | Variant | fraction ligated
95 | GATGTTG | 0.00218
96 | GATGTTC | 0.00331
97 | GATGTTT | 0.000955
98 | GATGTTA | 0.0473
99 | ATGTGAA A31T T32G | 0.65
100 | ATGTGAA C26A A27G G28A A31T T32G | 0.0728
101 | ATGTGAA A27G G28A A31T T32G | 0.733
102 | GATGTAC | 0.00239
103 | GATGTAG | 0.00461
104 | GATGTAA | 0.175
105 | GATGTAT | 0.00414
106 | ATGTGAA | 0.0281
107 | GTGTGAA | 0.0136
108 | ATGTGAA T23A A24T T25C C26A A27G G28A A31T T32G | 0.228
109 | ATGTGAA G28A A31T T32G | 0.52
110 | GATGTCA | 0.0146
111 | GATGTCG | 0.00256
112 | GATGTCC | 0.00223
113 | GATGTCT | 0.00139
114 | GATGTGA | 0.844
115 | GATGTGG | 0.00509
116 | GATGTGC | 0.00735
117 | GATGTGT | 0.00586
118 | ATGTGAA A24T T25C C26A A27G G28A A31T T32G | 0.0261
119 | GAGTGAA | 0.00382
120 | ATGTGAA T25C C26A A27G G28A A31T T32G | 0.0163
121 | ATGTGAA T32G | 0.0137
122 | GATTGAA | 0.023

Variants of: B3
Assay: as above
Conditions: with F1*subA RNA substrate (template-directed ligation), 42 °C
Procedure, shortened: as §1

Row | Variant | fraction ligated
123 | A35T G42T | 0.00285
124 | A27C T32G | 0.0136
125 | T23C | 0.318
126 | G42C A44C | 0.00284
127 | T23G A31T | 0.826
128 | G34T A35T | 0.00561
129 | G28C G34A | 0.109
130 | A29T G33T | 0.453
131 | A31C A43T | 0.0946
132 | T25G G37C | 0.00475
133 | G28A A35T | 0.0165
134 | C26A T36G | 0.0133
135 | A27T A30G | 0.851
136 | A24C A35C | 0.00154
137 | A35G G37A | 0.00295
138 | T23A T25A | 0.00503
139 | A27G A35T | 0.0618
140 | A24C A30T | 0.0451
141 | G37T A44G | 0.0087
142 | A29T T32G | 0.0161
143 | A43G A44C | 0.00393
144 | T25A G34T | 0.00319
145 | G28A T32G | 0.0134
146 | A30C G33T | 0.435
147 | A29G A43T | 0.0936
148 | A30G G34T | 0.00265
149 | A24G A44T | 0.016
150 | A44G | 0.79
151 | A27T A31C | 0.844

Variants of: B4
Assay: as above
Conditions: with F1*subA RNA substrate (template-directed ligation), 42 °C
Procedure, shortened: as §1

Row | Variant | fraction ligated
152 | TCAGATGGAGT G35T T38G A40T | 0.00171
153 | ACAGTGGATGT | 0.00954
154 | CAGATGGTGTG T23A | 0.0045
155 | TAGATGGAGTG T23A | 0
156 | TAGAGGATGTG | 0.00132
157 | TCAGAGATGTG | 0.00161
158 | ACAGATGAGTG | 0.00298
159 | TCAGAGGATGT A40G | 0.00564
160 | CAAAGGATGTG A29T | 0.00429
161 | CAGATGATGTG | 0.00402
162 | TCAGATATGTG T23A | 0.000828
163 | ACAGAGATGTG | 0.0018
164 | TAGATGGATGT T23A A40G | 0.00768
165 | TCAGATGGAGT G35T | 0.0137
166 | ACAATGGATGT | 0.00325
167 | CAGATGGTGTG | 0.00442
